Test results: US9096681B2, “XBP1, CD138, and CS1 peptides” (Dana-Farber Cancer Institute, Inc., priority 2008, dated 2015)

Biological target: HLA-A2 molecules on the surface of human T2 cells (Homo sapiens, UniProt P04439, D140Y/D185E/D98H/E176V/E277Q/G131W/G231S/I119V/I121R/I166T/I218V/L300P/L318F/N151K/N90K/P208A/P217A/Q86G/Q94H/R138H/R169H/T345S)
Test: Peptide stability assay (peptide/HLA-A2 binding stability post-Brefeldin A)

Sequence: NISPWILAV (listed as Homo sapiens) [XBP1184-192, native non-spliced XBP1 peptide]
- HLA-A2 binding stability (non-spliced XBP1 peptides (FIG. 2), 0, 2, 4, 6 and 18 hours post-Brefeldin A): significantly lower level of HLA-A2 binding stability as compared to the influenza virus protein matrix peptide58-66

Sequence: GLVGLIFAV (listed as Homo sapiens) [CD138 #2p, native CD138 peptide]
- HLA-A2 binding stability (CD138 peptide (FIG. 12), 0 hr, 2 hr, 4 hr, 6 hr, or overnight): nearly equivalent to influenza virus protein matrix peptide58-66
